How the values were obtained:
[1] = oral dosing in healthy men; cited from earlier work
total Te = settings: overnight after oral KTCZ 1000 mg with DEX 0.75 mg at midnight; reduced from 530±61; cited from earlier work
Pulsatile LH secretion = experiment: Expected pulsatile LH secretion in KTCZ/DEX paradigm with Te addback; format: in vivo, human
Description: Volunteers (Forty (40) healthy men ages 18-80 years) arrived at a testing facility by 1730 hours and stayed two nights. At 1800-2000 hours, two i.v. catheters were placed in (contralateral) antecubital veins to allow concomitant saline or Te infusion and blood sampling. […] This regimen can reduce the concentration of total Te from 530±61 to 85±13 ng/dL overnight. […] Visits were greater than or equal to two weeks apart. The order of the four visits was prospectively randomized, and interventions were double-blind.
To enforce pulsatile negative feedback, 12 consecutive pulses of Te or saline was given i.v. on top of the basal infusion. […] To monitor LH and Te concentrations, blood samples (1.25 mL) were withdrawn every 10 min for 16 hours beginning at 0800 hours, FIG. 7.
Te was infused at a constant rate of 1.0 mg/24 hours from midnight (MN) until MN. There were 12 superimposed pulses each at a session-defined dose of zero (saline), 167, 333 or 500 μg delivered over 6 min every two hours from MN to 2200 hours. Resultant total (basal+pulsatile) Te infusion rates were equivalent to 1, 3, 5 and 7 mg/24 hours, thus spanning sub-, mid- and high-physiological Te production rates in healthy young men (normal interquartile range 4-6 mg/day) (Veldhuis et al., Physiological Basis of Aging and Geriatrics, 3rd edition, 213-231, Boca Raton, CRC Press (2003); Veldhuis, Reproductive Endocrinology, 4th edition, 622-631, Philadelphia, W.B. Saunders Co., (1999)). Crystalline testosterone was dissolved in 100% ethanol, diluted to less than 0.3% ethanol in normal saline, and microfiltered for i.v. infusion after sterility and pyrogen testing.
Estimates based on data described elsewhere (Zwart et al., J. Clin. Endocrinol. Metab. 82:2062-2069 (1997)) indicate that statistical power can exceed 90% to detect an effect of age that explains 33% or more of the variability in Te feedback sensitivity if 40 subjects are studied. The predicted slope±SD of feedback sensitivity regressed on age is (×10^−3) 1.5±0.25. […] Because an a priori postulate is that age reduces feedback sensitivity, a test of significance can be one-tailed; and because both sensitivity and efficacy can be examined, the experiment-wise critical value is P≦0.025.

[2] = Bayesian deconvolution of 24-hr pituitary-hormone concentration profiles (secretion and elimination parameters); format: in vivo, human; settings: 24-hr 10-min sampled profile, ACTH, LH young, GH person
Description: The experimentalist requires an automated procedure by which to simultaneously detect pulse times and estimate secretion/kinetic features. […] In each case, discrete blood sampling (i.e., the withdrawal lasting 5-10 sec) was performed every 10 min for 24 hr. [Integrative sampling (continuous withdrawal) yields a time-integrated or flattened version of the impulse, thereby underestimating absolute peak values and overestimating interpulse valleys.] If the set (Y1, Y2, . . . , Yn) denotes observed hormone concentrations, n would be 145 for 10-min sampling over 24 hr. […] One would like to find values (a,b) so that, for a specified probability, e.g., 0.95, one can make the following probability statement:
Assuming that pulse-onset times are given by ℑm={T^1, T^2 . . . , T^m}, Keenan and Veldhuis give a model to estimate secretory dynamics conditional on pulse times (Keenan & Veldhuis, 1998; Keenan et al., 2000; Keenan et al., 1998). The primary components are basal and pulsatile secretion, a flexible secretory-burst shape, random effects on burst mass, biexponential elimination kinetics and combined experimental uncertainty in sample collection, processing and assay. We suppose that M, the amount of hormone secreted in the j^th burst (mass per unit distribution volume), is the sum of a finite amount of minimally available stores, a linear function of hormone accumulation over the preceding interpulse interval, and a random effect allowing for biological variability in individual burst mass:
In the present Bayesian approach, an a priori (prior) probability distribution is placed on the parameter space: Θ×ℑ, where ℑ={ℑN, ℑN-1, . . . , ℑp} in Eq. [16] and Θ denotes the parameter set in Eq. [14]. The prior density on Θ×ℑ is assumed to be a product: π×λ, with a uniform prior on Θ, π(θ)∝ to a Constant. The prior on ℑ is the Akaike Information Criterion (AIC) penalty for the number of pulse times m, λ(ℑm)∝exp(−m). […] Measured data Y=(Y1, Y2, . . . , Yn)′ are then incorporated via a likelihood function (Eq. [15]), resulting in the a posteriori (posterior) probability distribution on Θ×ℑ:
The algorithm of the present paper utilizes a mathematically justified procedure for simulating from the joint (Θ×ℑ) posterior distribution (Eq. [18]). The basic idea is that, for a given hormone concentration profile, one generates an array of (e.g. 100) simulations from the posterior distribution, which allows one then to make probabilistic statements about the parameters of pulse times, secretion and elimination.
total basal secretion as: n×β0, and total pulsatile as the difference. Repeated sampling of (θ,ℑm), and calculation of total pulsatile secretion (for each), produces a probability histogram approximating the posterior distribution for total pulsatile secretion, given an observed concentration profile. […] Specifically, in reference to Eq. [9]
Histograms are based on 100 simulations from the joint posterior distribution.

[3] = injected GnRH, i.v. bolus; cited from earlier work
[4] = 0.05 quantile of posterior distribution
[5] = 0.25 quantile of posterior distribution
[6] = 0.50 quantile of posterior distribution
[7] = 0.75 quantile of posterior distribution

CC(=O)N1CCN(c2ccc(OCC3COC(Cn4ccnc4)(c4ccc(Cl)cc4Cl)O3)cc2)CC1 (centres unmarked) [KTCZ, ketoconazole]
half-life [1]: six | concentration of total Te (total Te): 85 ± 13 ng/dL

C[C@]12CC[C@H]3[C@@H](CCC4=CC(=O)CC[C@@]43C)[C@@H]1CC[C@@H]2O [Te, testosterone]
Pulsatile LH secretion (Pulsatile LH secretion; oldest subjects, 1 mg Te addback, free Te decrement 15 ng/dL): 2.0 IU/L/min | Pulsatile LH secretion (Pulsatile LH secretion; oldest subjects, 7 mg Te addback (start of expected increase)): 0.65 IU/L/min | Pulsatile LH secretion (Pulsatile LH secretion; youngest subjects, 1 mg Te addback, free Te decrement 17 ng/dL): 3.5 IU/L/min | Pulsatile LH secretion (Pulsatile LH secretion; youngest subjects, 7 mg Te addback (start of expected increase)): 0.50 IU/L/min

adrenocorticotropin hormone (SYSMEHFRWGKPVGKKRRPVKVYPNGAEDESAEAFPLEF; Corticotropin; UniProt P01189 138-176, looked up) [ACTH, endogenous pituitary hormone measured in blood of a person]
Slow Half-Life [2, 4]: 9 min | Slow Half-Life [2, 5]: 11 min | Slow Half-Life [2, 6]: 15 min | Slow Half-Life [2, 7]: 19 min | Slow Half-Life ([2]; 0.95 quantile of posterior distribution): 25 min

gonadotropin-releasing hormone [GnRH]
first-phase half-life [3]: 3 to 7 min | second-phase half-life [3]: 35 to 50 min

growth hormone [GH]
Slow Half-Life [2, 4]: 28 min | Slow Half-Life [2, 5]: 31 min | Slow Half-Life [2, 6]: 31 min | Slow Half-Life [2, 7]: 31 min

— US20110046887A1, “METHOD FOR ASSESSING PATHWAY PRODUCT LEVELS” (priority 2006, published 2011)
